# In PMC9482650, “Quantitative fragmentomics allow affinity mapping of interactomes” (Nature Communications, 2022):
# Molecular target: Inadl_10, Q8NI35
# Assay: holdup assay
# Parameters: key: below the threshold = too weak to quantify, mostly under pKd 3.1 to 4
# Settings: plain residues with an end cap or a label only (N-terminal biotin on a linker: ado-ado)
# Inadl_10, Q8NI35, sequence (Q8NI35 1673-1763): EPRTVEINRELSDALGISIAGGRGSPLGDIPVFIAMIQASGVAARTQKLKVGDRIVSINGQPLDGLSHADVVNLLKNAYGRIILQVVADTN
row,Binder,pKd
1,"SQDPKKPSRV [CBY2, Q8NA61]",below the threshold

# Same assay, conditions: plain residues with an end cap or a label only (N-terminal biotin on a linker: ado-ado, ttds)
row,Binder,pKd
1,"SNAKAVETDV [KCNA4, P22459]",below the threshold

# Same assay, conditions: plain residues with an end cap or a label only (N-terminal biotin on a linker: ahx)
row,Binder,pKd
1,"SKKNELFSNL [NHERF1, O14745]",below the threshold
2,"VNENQKEYFF [CNTNAP4, Q9C0A0]",below the threshold
3,"KDECVIATEV [DLL1, O00548]",below the threshold
4,"YNSFLSVTTV [PDZRN3, Q9UPQ7]",3.7
5,"PKMKLNETSF [SHKBP1, Q8TBC3]",below the threshold

# Molecular target: PDLIM1, O00151
# Assay: holdup assay
# Parameters: key: below the threshold = too weak to quantify, mostly under pKd 3.1 to 4
# Settings: plain residues with an end cap or a label only (N-terminal biotin on a linker: ado-ado)
# PDLIM1, O00151, sequence (O00151 1-87): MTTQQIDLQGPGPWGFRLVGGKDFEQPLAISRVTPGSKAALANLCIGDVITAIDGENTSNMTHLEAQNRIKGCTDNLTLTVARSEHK
row,Binder,pKd
1,"SQDPKKPSRV [CBY2, Q8NA61]",below the threshold

# Same assay, conditions: plain residues with an end cap or a label only (N-terminal biotin on a linker: ado-ado, ttds)
row,Binder,pKd
1,"SNAKAVETDV [KCNA4, P22459]",3.77

# Same assay, conditions: plain residues with an end cap or a label only (N-terminal biotin on a linker: ahx)
row,Binder,pKd
1,"SKKNELFSNL [NHERF1, O14745]",below the threshold
2,"VNENQKEYFF [CNTNAP4, Q9C0A0]",below the threshold
3,"KDECVIATEV [DLL1, O00548]",below the threshold
4,"YNSFLSVTTV [PDZRN3, Q9UPQ7]",below the threshold
5,"PKMKLNETSF [SHKBP1, Q8TBC3]",3.51

# Molecular target: SCRIB_3, Q14160
# Assay: holdup assay
# Parameters: key: below the threshold = too weak to quantify, mostly under pKd 3.1 to 4
# Settings: plain residues with an end cap or a label only (N-terminal biotin on a linker: ado-ado)
# SCRIB_3, Q14160, sequence (Q14160 999-1103): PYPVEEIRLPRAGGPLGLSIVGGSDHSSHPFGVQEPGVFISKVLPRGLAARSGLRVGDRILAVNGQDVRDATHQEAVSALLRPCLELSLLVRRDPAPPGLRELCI
row,Binder,pKd
1,"SQDPKKPSRV [CBY2, Q8NA61]",below the threshold

# Same assay, conditions: plain residues with an end cap or a label only (N-terminal biotin on a linker: ado-ado, ttds)
row,Binder,pKd
1,"SNAKAVETDV [KCNA4, P22459]",4.8

# Same assay, conditions: plain residues with an end cap or a label only (N-terminal biotin on a linker: ahx)
row,Binder,pKd
1,"SKKNELFSNL [NHERF1, O14745]",below the threshold
2,"VNENQKEYFF [CNTNAP4, Q9C0A0]",3.7
3,"KDECVIATEV [DLL1, O00548]",4.11
4,"YNSFLSVTTV [PDZRN3, Q9UPQ7]",3.64
5,"PKMKLNETSF [SHKBP1, Q8TBC3]",4.49
